One data set deals with T1, human Axl-Strep-His (Homo sapiens, UniProt P30530, Q764R).
T1 construct: Strep; His; host or cells: transiently transfected CHO cells
T1 sequence (P30530 26-894 Q764R): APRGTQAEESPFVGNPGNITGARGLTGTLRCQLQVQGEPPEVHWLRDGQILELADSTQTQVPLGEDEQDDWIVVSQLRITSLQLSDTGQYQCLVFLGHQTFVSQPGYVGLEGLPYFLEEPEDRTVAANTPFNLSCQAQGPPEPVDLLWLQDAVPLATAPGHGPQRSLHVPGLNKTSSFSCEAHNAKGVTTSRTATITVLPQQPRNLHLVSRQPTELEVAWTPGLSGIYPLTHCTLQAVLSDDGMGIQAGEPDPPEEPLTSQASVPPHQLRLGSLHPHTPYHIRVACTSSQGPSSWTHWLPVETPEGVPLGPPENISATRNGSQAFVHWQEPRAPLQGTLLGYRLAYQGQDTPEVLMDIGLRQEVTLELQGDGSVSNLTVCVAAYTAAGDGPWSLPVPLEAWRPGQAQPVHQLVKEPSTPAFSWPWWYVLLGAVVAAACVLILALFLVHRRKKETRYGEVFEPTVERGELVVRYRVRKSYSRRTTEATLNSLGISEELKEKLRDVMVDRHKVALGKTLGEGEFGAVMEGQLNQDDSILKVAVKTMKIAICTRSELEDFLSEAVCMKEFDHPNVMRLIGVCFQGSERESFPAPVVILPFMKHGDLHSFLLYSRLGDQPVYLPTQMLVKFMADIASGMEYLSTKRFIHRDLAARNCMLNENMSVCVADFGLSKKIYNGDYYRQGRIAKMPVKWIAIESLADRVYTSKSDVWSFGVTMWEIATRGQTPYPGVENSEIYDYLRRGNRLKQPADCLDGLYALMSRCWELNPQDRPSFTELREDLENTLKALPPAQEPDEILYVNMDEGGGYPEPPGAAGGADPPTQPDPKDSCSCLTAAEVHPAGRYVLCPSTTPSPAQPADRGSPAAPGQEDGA
Kind of data set: SPR measurement of antibody affinity, AXL-Strep-His antigen. The settings on record: for ka, AXL-Strep-His antigen / kd, AXL-Strep-His antigen / Kd: SPR Biacore T200, 25 C, bivalent ligand model (Ab1: heterogeneous ligand model); for affinity for Axl-Strep-His compared with Ab1: SPR; for Kd: read-out: KD1, AXL-Strep-His antigen. The class given is binding. The procedure: (§1) Protocol 4A: SPR Measurement of Antibody Affinity
(§2) • 1. Sensor Chip CM5 Biacore; Cat. # BR-1000-14 • 2. Amine Coupling Kit (EDC, NHS, ethanolamine-HCl) Biacore; Cat. # BR-1000-50 • 3. Immobilization buffer (10 mM Na acetate, pH 4.0) Biacore; Cat. # BR-1003-49 • 4. 50 mM NaOH Biacore; Cat. # BR-1003-58 • 5. Running buffer (PBS/Tween20 0.05% v/v) • 6. Biacore T200 GE Healthcare • 7. Regeneration solution: 10 mM HCl, 1 M NaCl
(§3) • Activate flow cell 2 with NHS-EDC 420s at 5 μl/min, then inject human AxI-Strep-His (Evitria) (10 μg/mL in 10 mM sodium acetate, pH 4.0) to achieve a coupling of […]. Block with ethanolamine for 420s. Repeat the process for flow cell 1 but with no antigen to create a reference flow cell. 12RU AXL fusion protein was coated. • For the Fc fusion, Human Axl-Fc chimera (R&D Systems #154-AL) (5 μg/mL in 10 mM sodium acetate, pH 4.5) was used with the above protocol. 16RU of AXL-Fc was coated. Protocol with AXL-Strep-His Antigen • Serial 10x dilutions of antibody, from 3000 nM, were made in PBS/Tween20. 2x regeneration cycles were used with 10 mM HCl, 1 M NaCl for 30s at 30 μl/min for both cycles. Start-up solution was PBS/Tween20 and set to 3 cycles. • Sample injection parameters were 120s at 30 μl/min, with 600s dissociation time. • Prime and normalise detector were run before sample application with experimental conditions 25 C and sample storage at 4 C. • Kinetic analysis used BIAevaluation software with bivalent ligand binding model. For chimeric 1H12 with AXL-Strep-His, “heterogeneous ligand” binding model was used due to poor fit with bivalent or monovalent algorithms. • Each antibody dilution was injected twice. Protocol with AXL-Fc Chimera Antigen • The above protocol was used except that the running buffer was HBSEP+, serial 10x dilutions of antibody were from 500 nM in HBSEP+ running buffer and were injected for 180 sec. • Analysis used BIAevaluation software with the bivalent binding model.
(In SPR one partner is held on a chip, and binding of the other changes the refractive index at the surface.)

The target in the next data set is T2, Human Axl-Fc chimera (Homo sapiens, UniProt P30530).
T2 construct: purchased R&D Systems 154-AL
Kind of data set: SPR measurement of antibody affinity, AXL-Fc chimera antigen. The class given is binding. The settings on record: for ka, AXL-Fc antigen / kd, AXL-Fc antigen / Kd: HBSEP+ running buffer, bivalent binding model. The procedure: as §1, §2, §3

The nature of data set [1]: Protein thermal shift (Tm). The class given is physicochemical. The settings on record: 0.5 mg/mL in PBS, HEK293F expression product. The procedure: Protocol 6: Protein Thermal Shift Protocol
• 96 well optical plate semi-skirted (Starlab cat.L1402-9700). • Protein thermal shift dye kit (Life Technologies cat.446148). • Microamp optical adhesive film (Applied Biosystems) • 7500 Real-Time PCR System (Life Technologies) • Test items: Antibodies from Evitria and Spirogen • Protein thermal shift v1.2 software (Life Technologies)
Protein thermal shift dye (2.5 μL 1:1000 dilution) was added to sample proteins (17.5 μL of 0.5 mg/mL in PBS) in a 96 well optical plate and mixed thoroughly. Every sample was done in quadruplicate. The plate was sealed with a optical adhesive film and bubbles in the wells were removed by centrifugation 1 min at 500 g, then placed on ice. The sealed plate was introduced in the 7500 Real-Time PCR System and subsequently the experiment was set up as follows:
Data analysis and derivation of Tm data were done using the software following the manufacturers instructions.

The results in this text go back to US20180127505A1, “HUMANIZED ANTI-AXL ANTIBODIES AND THEIR CONJUGATES” (MEDIMMUNE LIMITED, priority 2015, published 2018).

T2 sequence (P30530 with tags, fused parts or gaps isoform P30530-2 limits assumed): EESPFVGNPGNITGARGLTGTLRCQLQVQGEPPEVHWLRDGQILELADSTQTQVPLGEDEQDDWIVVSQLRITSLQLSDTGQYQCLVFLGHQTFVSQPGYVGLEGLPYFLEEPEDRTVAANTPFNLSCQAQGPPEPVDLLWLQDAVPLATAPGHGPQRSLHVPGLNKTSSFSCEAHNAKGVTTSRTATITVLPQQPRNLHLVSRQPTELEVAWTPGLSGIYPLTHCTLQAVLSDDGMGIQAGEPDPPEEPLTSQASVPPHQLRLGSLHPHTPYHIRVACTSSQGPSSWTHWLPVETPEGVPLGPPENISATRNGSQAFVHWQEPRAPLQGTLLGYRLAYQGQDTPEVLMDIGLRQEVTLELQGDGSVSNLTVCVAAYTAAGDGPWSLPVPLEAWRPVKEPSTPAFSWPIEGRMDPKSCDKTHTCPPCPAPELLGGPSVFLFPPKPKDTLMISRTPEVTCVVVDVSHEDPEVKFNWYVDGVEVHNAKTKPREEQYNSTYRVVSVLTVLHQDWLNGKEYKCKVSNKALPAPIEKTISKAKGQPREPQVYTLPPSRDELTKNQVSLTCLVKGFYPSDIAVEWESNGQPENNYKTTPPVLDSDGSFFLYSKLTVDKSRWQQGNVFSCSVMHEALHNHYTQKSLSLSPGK

B1: Ab1 (antibody, V domains shown)
VH: EVQLVESGGDLVKPGGSLKLSCAASGFTFSSYGMSWVRQTPDKRLEWVATISSGGSYTYYPDSVKGRFTISRDNAKNTLYLQMSSLKSEDTAMYYCARHPIYYTYDDTMDYWGQGTSVTVSS
VL: ENVLTQSPAIMAASPGEKVTMTCSASSSVSSGNFHWYQQKPGTSPKLWIYRTSNLASGVPARFSGSGSGTSYSLTISSMEAEDAATYYCQQWSGYPWTFGGGTKLEIK
For B1, in the data set with human Axl-Strep-His, the “ka, AXL-Strep-His antigen” value was found to be 13100 M⁻¹ s⁻¹ and the “kd, AXL-Strep-His antigen” value came to 0.000533 s⁻¹. In the data set with Human Axl-Fc chimera, the “ka, AXL-Fc antigen” value is 30900 M⁻¹ s⁻¹ and the “kd, AXL-Fc antigen” value is 0.000142 s⁻¹. Further, the Tm (commonly the temperature at the midpoint of the melting transition) in data set [1] is 69.52 °C.

B2: Ab2: anti-AXL antibody, VH SEQ ID NO. 2, VL SEQ ID NO. 5, constant region derived from human antibodies (antibody, V domains shown)
VH: MGFKMESQFQVFVFVFLWLSGVDGQVQLVESGGGVVQPGRSLRLSCAASGFTFSSYGMSVRQAPGKGLEWVATISSGGSYTYYPDSVKGRFTISRDNSKNTLYLQMNSLRAEDTAVYYCARHPIYYTYDDTMDYWGQGTTVTVSS
VL: MGFKMESQFQVFVFVFLWLSGVDGEIVLTQSPATLSLSPGERATLSCSASSSVSSGNFHWYQQKPGLAPRLLIYRTSNLASGIPDRFSGSGSGTDFTLTISRLEPEDFAVYYCQQWSGYPWTFGPGTKVDIK
modifications: human constant regions; Synthetic heavy chain variable region 1H12RHA; Synthetic light chain variable region 1H12RKA
notes: 5, constant region derived from human antibodies
With B2, in the data set with human Axl-Strep-His, the “affinity for Axl-Strep-His compared with Ab1” value is “higher affinity”; the “ka, AXL-Strep-His antigen” value was determined as 13200 M⁻¹ s⁻¹; the “kd, AXL-Strep-His antigen” value stood at 0.000441 s⁻¹; the Kd was 33.4 nM. In the data set with Human Axl-Fc chimera, the “affinity for Axl-Fc compared with Ab1” value was “higher affinity”; the Kd was 1.84 nM; the “ka, AXL-Fc antigen” value was 83700 M⁻¹ s⁻¹; the “kd, AXL-Fc antigen” value was 0.000154 s⁻¹. For the same molecule, the Tm in data set [1] amounted to 59.71 °C.

B3: Ab3: anti-AXL antibody, VH SEQ ID NO. 2, VL SEQ ID NO. 7, constant region derived from human antibodies (antibody, V domains shown)
VH: MGFKMESQFQVFVFVFLWLSGVDGQVQLVESGGGVVQPGRSLRLSCAASGFTFSSYGMSVRQAPGKGLEWVATISSGGSYTYYPDSVKGRFTISRDNSKNTLYLQMNSLRAEDTAVYYCARHPIYYTYDDTMDYWGQGTTVTVSS
VL: MGFKMESQFQVFVFVFLWLSGVDGEIVLTQSPGTLSLSPGERATLSCSASSSVSSGNFHWYQQKPGLAPRLLIYRTSNLASGIPARFSGSGSGTDFTLTISSLEPEDFAVYYCQQWSGYPWTFGGGTKLEIK
modifications: human constant regions; Synthetic heavy chain variable region 1H12RHA; Synthetic light chain variable region 1H12RKB
notes: 7, constant region derived from human antibodies
As for B3, in the data set with human Axl-Strep-His, the “affinity for Axl-Strep-His compared with Ab1” value is recorded as “higher affinity”; the “ka, AXL-Strep-His antigen” value was determined as 19200 M⁻¹ s⁻¹; the “kd, AXL-Strep-His antigen” value is 0.000636 s⁻¹; the Kd worked out at 33.1 nM. In addition, in the data set with Human Axl-Fc chimera, the Kd is 8.5 nM; the “ka, AXL-Fc antigen” value was 24500 M⁻¹ s⁻¹; the “kd, AXL-Fc antigen” value is 0.0002 s⁻¹. Besides, the midpoint of thermal melting (Tm) in data set [1] was found to be 62.05 °C.

B4: Ab4: anti-AXL antibody, VH SEQ ID NO. 3, VL SEQ ID NO. 5, constant region derived from human antibodies (antibody, V domains shown)
VH: MGFKMESQFQVFVFVFLWLSGVDGEVQLVESGGGLVQPGGSLRLSCAASGFTFSSYGMSWVRQAPGKGLEWVATISSGGSYTYYPDSVKGRFTISRDNAKNSLYLQMNSLRAEDTAVYYCARHPIYYTYDDTMDYWGQGTLVTVSS
VL: MGFKMESQFQVFVFVFLWLSGVDGEIVLTQSPATLSLSPGERATLSCSASSSVSSGNFHWYQQKPGLAPRLLIYRTSNLASGIPDRFSGSGSGTDFTLTISRLEPEDFAVYYCQQWSGYPWTFGPGTKVDIK
modifications: human constant regions; Synthetic heavy chain variable region 1H12RHB; Synthetic light chain variable region 1H12RKA
notes: as for B2
As for B4, in the data set with human Axl-Strep-His, the “ka, AXL-Strep-His antigen” value is 9759 M⁻¹ s⁻¹ and the “kd, AXL-Strep-His antigen” value turned out to be 0.00059 s⁻¹. In addition, in the data set with Human Axl-Fc chimera, the “affinity for Axl-Fc compared with Ab1” value is recorded as “higher affinity”; the “ka, AXL-Fc antigen” value came to 290000 M⁻¹ s⁻¹; the “kd, AXL-Fc antigen” value worked out at 0.000396 s⁻¹. In addition, the Tm in data set [1] stood at 60.32 °C.

B5: Ab5: anti-AXL antibody, VH SEQ ID NO. 3, VL SEQ ID NO. 7, constant region derived from human antibodies (antibody, V domains shown)
VH: MGFKMESQFQVFVFVFLWLSGVDGEVQLVESGGGLVQPGGSLRLSCAASGFTFSSYGMSWVRQAPGKGLEWVATISSGGSYTYYPDSVKGRFTISRDNAKNSLYLQMNSLRAEDTAVYYCARHPIYYTYDDTMDYWGQGTLVTVSS
VL: MGFKMESQFQVFVFVFLWLSGVDGEIVLTQSPGTLSLSPGERATLSCSASSSVSSGNFHWYQQKPGLAPRLLIYRTSNLASGIPARFSGSGSGTDFTLTISSLEPEDFAVYYCQQWSGYPWTFGGGTKLEIK
modifications: human constant regions; Synthetic heavy chain variable region 1H12RHB; Synthetic light chain variable region 1H12RKB
notes: as for B3
With B5, in the data set with human Axl-Strep-His, the “affinity for Axl-Strep-His compared with Ab1” value was “higher affinity”; the “ka, AXL-Strep-His antigen” value is 18900 M⁻¹ s⁻¹; the “kd, AXL-Strep-His antigen” value was determined as 0.000435 s⁻¹. Also, in the data set with Human Axl-Fc chimera, the “ka, AXL-Fc antigen” value worked out at 20600 M⁻¹ s⁻¹ and the “kd, AXL-Fc antigen” value was 0.000159 s⁻¹. Also, in data set [1], the Tm turned out to be 63.06 °C.
